Measurements reported in IntAct's records for PubMed 35512704.

B1: Speckle-type POZ protein (Homo sapiens), O43791 (parent)
chain: MSRVPSPPPPAEMSSGPVAESWCYTQIKVVKFSYMWTINNFSFCREEMGEVIKSSTFSSGANDKLKWCLRVNPKGLDEESKDYLSLYLLLVSCPKSEVRAKFKFSILNAKGEETKAMESQRAYRFVQGKDWGFKKFIRRDFLLDEANGLLPDDKLTLFCEVSVVQDSVNISGQNTMNMVKVPECRLADELGGLWENSRFTDCCLCVAGQEFQAHKAILAARSPVFSAMFEHEMEESKKNRVEINDVEPEVFKEMMCFIYTGKAPNLDKMADDLLAAADKYALERLKVMCEDALCSNLSVENAAEILILADLHSADQLKTQAVDFINYHASDVLETSGWKSMVVSHPHLVAEAYRSLASAQCPFLGPPRKRLKQS
partner: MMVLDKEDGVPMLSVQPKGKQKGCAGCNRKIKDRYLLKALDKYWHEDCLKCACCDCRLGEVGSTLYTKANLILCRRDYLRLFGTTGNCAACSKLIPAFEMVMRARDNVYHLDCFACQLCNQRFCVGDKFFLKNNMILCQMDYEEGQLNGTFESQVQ
B2: Speckle-type POZ protein (Homo sapiens), O43791 (parent)
chain: B1 chain
partner: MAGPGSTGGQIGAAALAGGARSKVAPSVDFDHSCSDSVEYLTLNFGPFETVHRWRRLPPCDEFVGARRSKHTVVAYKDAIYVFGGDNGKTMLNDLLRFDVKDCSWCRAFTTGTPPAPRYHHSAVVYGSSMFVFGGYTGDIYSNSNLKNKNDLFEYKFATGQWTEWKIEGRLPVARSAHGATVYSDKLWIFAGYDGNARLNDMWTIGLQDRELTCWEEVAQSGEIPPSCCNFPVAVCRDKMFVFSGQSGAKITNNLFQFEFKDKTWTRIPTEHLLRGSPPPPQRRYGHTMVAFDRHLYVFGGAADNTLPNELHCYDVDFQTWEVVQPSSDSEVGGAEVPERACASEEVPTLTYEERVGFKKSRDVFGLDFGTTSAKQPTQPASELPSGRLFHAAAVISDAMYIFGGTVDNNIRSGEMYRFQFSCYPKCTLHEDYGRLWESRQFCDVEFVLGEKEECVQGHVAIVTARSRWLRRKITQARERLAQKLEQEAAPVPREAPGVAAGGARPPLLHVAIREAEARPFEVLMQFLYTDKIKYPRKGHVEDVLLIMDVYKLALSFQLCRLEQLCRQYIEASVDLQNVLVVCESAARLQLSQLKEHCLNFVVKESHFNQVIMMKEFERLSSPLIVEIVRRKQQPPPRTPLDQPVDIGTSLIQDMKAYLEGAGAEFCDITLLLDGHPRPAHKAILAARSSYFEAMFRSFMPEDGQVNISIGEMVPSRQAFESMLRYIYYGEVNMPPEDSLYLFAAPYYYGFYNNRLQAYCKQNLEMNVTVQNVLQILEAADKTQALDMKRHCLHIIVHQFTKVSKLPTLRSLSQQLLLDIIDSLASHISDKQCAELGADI
B3: Speckle-type POZ protein (Homo sapiens), O43791 (parent)
chain: B1 chain
partner: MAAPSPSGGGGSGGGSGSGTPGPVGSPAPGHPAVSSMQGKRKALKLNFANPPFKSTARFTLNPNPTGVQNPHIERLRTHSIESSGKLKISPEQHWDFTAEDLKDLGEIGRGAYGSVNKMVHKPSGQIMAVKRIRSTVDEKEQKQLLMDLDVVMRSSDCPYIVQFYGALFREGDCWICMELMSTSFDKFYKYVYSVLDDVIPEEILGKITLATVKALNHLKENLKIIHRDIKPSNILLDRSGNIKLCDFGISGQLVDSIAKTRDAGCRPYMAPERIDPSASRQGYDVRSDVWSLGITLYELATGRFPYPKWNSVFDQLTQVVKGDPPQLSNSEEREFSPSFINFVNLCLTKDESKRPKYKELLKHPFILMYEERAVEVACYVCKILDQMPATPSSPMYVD
B4: Speckle-type POZ protein (Homo sapiens), O43791 (parent)
chain: B1 chain
partner: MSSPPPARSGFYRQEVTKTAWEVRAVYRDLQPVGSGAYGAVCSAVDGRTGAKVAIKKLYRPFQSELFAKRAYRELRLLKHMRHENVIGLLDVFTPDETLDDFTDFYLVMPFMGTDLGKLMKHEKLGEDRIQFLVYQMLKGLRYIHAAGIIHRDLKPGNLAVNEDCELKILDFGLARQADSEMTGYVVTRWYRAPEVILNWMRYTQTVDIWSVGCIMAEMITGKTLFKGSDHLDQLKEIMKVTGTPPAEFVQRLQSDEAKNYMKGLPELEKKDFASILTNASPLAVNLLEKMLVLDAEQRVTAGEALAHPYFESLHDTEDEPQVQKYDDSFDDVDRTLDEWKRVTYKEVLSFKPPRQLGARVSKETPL
B5: Speckle-type POZ protein (Homo sapiens), O43791 (parent)
chain: B1 chain
partner: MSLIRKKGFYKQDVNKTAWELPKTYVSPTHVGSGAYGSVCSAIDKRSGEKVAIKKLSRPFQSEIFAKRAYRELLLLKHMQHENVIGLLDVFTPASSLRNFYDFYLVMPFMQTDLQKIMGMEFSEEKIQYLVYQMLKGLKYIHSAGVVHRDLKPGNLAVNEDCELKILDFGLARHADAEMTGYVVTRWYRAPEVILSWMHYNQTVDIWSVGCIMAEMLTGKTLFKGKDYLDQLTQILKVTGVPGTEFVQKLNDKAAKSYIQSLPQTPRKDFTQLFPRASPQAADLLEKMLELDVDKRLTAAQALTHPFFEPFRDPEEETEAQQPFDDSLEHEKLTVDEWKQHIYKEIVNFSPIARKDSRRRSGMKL
B6: Speckle-type POZ protein (Homo sapiens), O43791 (parent)
chain: B1 chain
partner: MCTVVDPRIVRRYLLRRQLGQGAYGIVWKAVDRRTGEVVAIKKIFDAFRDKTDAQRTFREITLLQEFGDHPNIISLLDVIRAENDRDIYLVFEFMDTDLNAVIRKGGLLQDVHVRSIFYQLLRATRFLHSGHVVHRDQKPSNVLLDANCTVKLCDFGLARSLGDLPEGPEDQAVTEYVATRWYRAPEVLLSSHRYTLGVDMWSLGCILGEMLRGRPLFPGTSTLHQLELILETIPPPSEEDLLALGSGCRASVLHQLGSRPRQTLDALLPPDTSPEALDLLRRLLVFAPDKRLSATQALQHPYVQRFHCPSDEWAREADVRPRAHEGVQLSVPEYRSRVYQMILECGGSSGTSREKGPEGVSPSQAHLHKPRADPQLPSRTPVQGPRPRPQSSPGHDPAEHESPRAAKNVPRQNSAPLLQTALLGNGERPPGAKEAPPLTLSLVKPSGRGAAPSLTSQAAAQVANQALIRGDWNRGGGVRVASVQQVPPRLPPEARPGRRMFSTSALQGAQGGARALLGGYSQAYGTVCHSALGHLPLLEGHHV
B7: Speckle-type POZ protein (Homo sapiens), O43791 (parent)
chain: B1 chain
partner: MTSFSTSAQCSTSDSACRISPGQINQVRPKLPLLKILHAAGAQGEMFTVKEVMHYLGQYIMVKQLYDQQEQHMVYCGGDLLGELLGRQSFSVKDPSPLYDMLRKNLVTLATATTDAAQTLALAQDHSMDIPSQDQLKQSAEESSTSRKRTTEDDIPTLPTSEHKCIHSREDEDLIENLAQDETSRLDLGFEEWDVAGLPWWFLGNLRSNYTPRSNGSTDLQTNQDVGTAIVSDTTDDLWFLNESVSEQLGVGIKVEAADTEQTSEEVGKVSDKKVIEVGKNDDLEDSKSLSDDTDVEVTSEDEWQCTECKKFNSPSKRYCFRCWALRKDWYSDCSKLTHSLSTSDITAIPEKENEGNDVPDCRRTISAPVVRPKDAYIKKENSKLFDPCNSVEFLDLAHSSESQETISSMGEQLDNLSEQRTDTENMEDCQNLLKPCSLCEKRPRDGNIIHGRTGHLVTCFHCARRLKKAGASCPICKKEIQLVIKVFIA

Variants of: B1
Settings: with rbtn1_human LMO1, P25800
With F133L the “effect of a mutation on the interaction” value was “with no effect”.

Variants of: B1
Settings: with rbtn1_human LMO1, P25800
Remark: another data set of the same source
In the case of Y87C, the “effect of a mutation on the interaction” value is reported as “with no effect”.

Variants of: B1
Settings: with rbtn1_human LMO1, P25800
Remark: another data set of the same source
With F133V the “effect of a mutation on the interaction” value was “with no effect”.

Variants of: B2
Settings: with lztr1_human LZTR1, Q8N653
F102C was tested, and the “effect of a mutation on the interaction” value was “with no effect”.

Variants of: B2
Settings: with lztr1_human LZTR1, Q8N653
Remark: another data set of the same source
For F133L, the “effect of a mutation on the interaction” value was “with no effect”.

Variants of: B2
Settings: with lztr1_human LZTR1, Q8N653
Remark: another data set of the same source
Y87C was tested, and the “effect of a mutation on the interaction” value was “with no effect”.

Variants of: B2
Settings: with lztr1_human LZTR1, Q8N653
Remark: another data set of the same source
With F133V the “effect of a mutation on the interaction” value was “with no effect”.

Variants of: B3
Settings: with mp2k4_human MAP2K4, P45985
F102C was tested, and the “effect of a mutation on the interaction” value was “with no effect”.

Variants of: B3
Settings: with mp2k4_human MAP2K4, P45985
Remark: another data set of the same source
With Y87C the “effect of a mutation on the interaction” value was “with no effect”.

Variants of: B4
Settings: with mk12_human MAPK12, P53778
In the case of F102C, the “effect of a mutation on the interaction” value is reported as “with no effect”.

Variants of: B4
Settings: with mk12_human MAPK12, P53778
Remark: another data set of the same source
In the case of F133L, the “effect of a mutation on the interaction” value is reported as “with no effect”.

Variants of: B4
Settings: with mk12_human MAPK12, P53778
Remark: another data set of the same source
For Y87C, the “effect of a mutation on the interaction” value was “with no effect”.

Variants of: B4
Settings: with mk12_human MAPK12, P53778
Remark: another data set of the same source
In the case of F133V, the “effect of a mutation on the interaction” value is reported as “with no effect”.

Variants of: B5
Settings: with mk13_human MAPK13, O15264
With F102C the “effect of a mutation on the interaction” value was “with no effect”.

Variants of: B5
Settings: with mk13_human MAPK13, O15264
Remark: another data set of the same source
For F133L, the “effect of a mutation on the interaction” value was “with no effect”.

Variants of: B5
Settings: with mk13_human MAPK13, O15264
Remark: another data set of the same source
With Y87C the “effect of a mutation on the interaction” value was “with no effect”.

Variants of: B5
Settings: with mk13_human MAPK13, O15264
Remark: another data set of the same source
With F133V the “effect of a mutation on the interaction” value was “with no effect”.

Variants of: B6
Settings: with mk15_human MAPK15, Q8TD08
For F102C, the “effect of a mutation on the interaction” value was “with no effect”.

Variants of: B6
Settings: with mk15_human MAPK15, Q8TD08
Remark: another data set of the same source
For F133L, the “effect of a mutation on the interaction” value was “with no effect”.

Variants of: B6
Settings: with mk15_human MAPK15, Q8TD08
Remark: another data set of the same source
Y87C was tested, and the “effect of a mutation on the interaction” value was “with no effect”.

Variants of: B6
Settings: with mk15_human MAPK15, Q8TD08
Remark: another data set of the same source
F133V was tested, and the “effect of a mutation on the interaction” value was “with no effect”.

Variants of: B7
Settings: with mdm4_human MDM4, O15151
F102C was tested, and the “effect of a mutation on the interaction” value was “with no effect”.

Variants of: B7
Settings: with mdm4_human MDM4, O15151
Remark: another data set of the same source
With F133L the “effect of a mutation on the interaction” value was “with no effect”.

Variants of: B7
Settings: with mdm4_human MDM4, O15151
Remark: another data set of the same source
In the case of Y87C, the “effect of a mutation on the interaction” value is reported as “with no effect”.
